Results taken from US20240116985A1 (published 2024).
Starred links: 1 amine or outer side, 2 acyl side, 3 side chain; linkers in the order of their positions; H or OH if unused. Positions of bridges follow the written chain, without caps; N, C: chain ends. Non-standard residues stand in square brackets, D forms with d. Primed or numbered codes have the meaning given here. *: point of attachment. PyrS2″ = (S)-3-amino-1-((pent-4-en-1-yloxy)carbonyl)pyrrolidine-3-carboxylic acid (stapling residue), C=CCCCOC(=O)N1CC[C@@](N[*:1])(C(=O)[*:2])C1; B5(24) = 2-amino-2-(pent-4-en-1-yl)hept-6-enoic acid, 2,2-bis(4-pentenyl)glycine (stitching residue), C=CCCCC(CCCC=C)(N[*:1])C(=O)[*:2]; B5(4) = 2,2-bis(4-pentenyl)glycine = 2-amino-2-(pent-4-en-1-yl)hept-6-enoic acid (stitching residue), C=CCCCC(CCCC=C)(N[*:1])C(=O)[*:2]; B5 = 2-amino-2-(pent-4-en-1-yl)hept-6-enoic acid, C=CCCCC(CCCC=C)(N[*:1])C(=O)[*:2]; Phe(3-COOH) = N[C@@H](Cc1cccc(C(=O)O)c1)C(=O)O; 2F3MeF = Cc1cccc(C[C@H](N[*:1])C(=O)[*:2])c1F; Bta = N[C@@H](Cc1csc2ccccc12)C(=O)O; Lys(iPr) = CC(C)NCCCC[C@H](N)C(=O)O; hTyr = N[C@@H](CCc1ccc(O)cc1)C(=O)O; αAllylPro = C=CC[C@@]1(C(=O)O)CCCN1; Azidoacetyl = [N-]=[N+]=NCC(=O)*; tBuAla = CC(C)(C)C[C@H](N)C(=O)O; 3Thi = N[C@@H](Cc1ccsc1)C(=O)O; Cha = N[C@@H](CC1CCCCC1)C(=O)O; S8 = C=CCCCCCC[C@](C)(N)C(=O)O; Nicotinoyl = O=C(c1cccnc1)*; Picolinoyl = O=C(c1ccccn1)*; hSer = N[C@@H](CCO)C(=O)O; PhAc = O=C(Cc1ccccc1)*

T1: full-length beta-Catenin (Uniprot ID P35222) (Homo sapiens (Human), UniProt P35222 1-781)
T1 construct: The assay text says 'full-length beta-Catenin (Uniprot ID P35222)'; also called bCat; B-Catenin
T1 sequence: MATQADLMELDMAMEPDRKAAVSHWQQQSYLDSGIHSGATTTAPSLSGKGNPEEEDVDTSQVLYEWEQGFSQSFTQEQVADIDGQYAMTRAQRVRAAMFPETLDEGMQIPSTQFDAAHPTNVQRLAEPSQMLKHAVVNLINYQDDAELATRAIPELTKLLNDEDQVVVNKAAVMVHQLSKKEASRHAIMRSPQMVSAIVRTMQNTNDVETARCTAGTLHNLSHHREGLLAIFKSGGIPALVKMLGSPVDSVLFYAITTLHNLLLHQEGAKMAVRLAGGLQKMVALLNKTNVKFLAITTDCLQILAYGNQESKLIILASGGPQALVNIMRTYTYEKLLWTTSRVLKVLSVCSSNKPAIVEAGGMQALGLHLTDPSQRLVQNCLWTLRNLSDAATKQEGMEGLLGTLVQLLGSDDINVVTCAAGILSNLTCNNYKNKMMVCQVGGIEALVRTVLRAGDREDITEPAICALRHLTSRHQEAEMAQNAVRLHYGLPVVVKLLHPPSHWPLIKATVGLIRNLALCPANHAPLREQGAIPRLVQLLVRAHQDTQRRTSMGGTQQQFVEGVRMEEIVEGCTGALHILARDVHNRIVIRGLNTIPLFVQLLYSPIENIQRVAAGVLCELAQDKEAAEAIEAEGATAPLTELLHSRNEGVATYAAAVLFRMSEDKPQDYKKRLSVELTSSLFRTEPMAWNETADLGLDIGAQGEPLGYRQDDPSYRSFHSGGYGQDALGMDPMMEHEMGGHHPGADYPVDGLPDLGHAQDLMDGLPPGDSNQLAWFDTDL

T2: Bcat-Halo (UniProt P35222 1-781)
T2 sequence (looked up): T1 sequence

B1: I-600 (peptide)
peptide: PhAc-[αAllylPro]DI[B5]DEAAFQ[S8]F[Bta]Q-NH2
modifications: staple 1-4, 4-11
notes: Stapled peptide composition; N-terminal cap Bnc
B2: I-597 (peptide)
peptide: Ac-[αAllylPro]DI[B5]DEAAFQ[S8]F[Bta]QK(Azidoacetyl)-NH2
modifications: staple 1-4, 4-11; not fully specified
notes: Stapled peptide composition; same description as I-596, later eluting HPLC peak (staple isomer)
B3: I-599 (peptide)
peptide: Picolinoyl-[αAllylPro]DI[B5]DEAAFQ[S8]F[Bta]Q-NH2
modifications: staple 1-4, 4-11
notes: Stapled peptide composition; N-terminal cap Pic
B4: I-596 (peptide)
peptide: XDIXDEAAFQXFXQK
modifications: not fully specified; Ac-PL3-Asp-Ile-B5-Asp-Glu-Ala-Ala-Phe-Gln-S8-Phe-BztA-Gln-[AzAc]Lys-NH2; stapled PL3(1)-B5(4) and B5(4)-S8(11) by olefin metathesis
notes: Stapled peptide composition
B5: I-598 (peptide)
peptide: Nicotinoyl-[αAllylPro]DI[B5]DEAAFQ[S8]F[Bta]Q-NH2
modifications: staple 1-4, 4-11
notes: Stapled peptide composition; N-terminal cap Nic
B6: I-591 (peptide)
peptide: Ac-[αAllylPro]DI[B5(4)]DEK(Azidoacetyl)AFQ[S8]F[Bta]Q-NH2
modifications: staple 1-4, 4-11; not fully specified; printed as Ac-PL3-Asp-Ile-B5-Asp-Glu-[AzAc]Lys-Ala-Phe-Gln-S8-Phe-BztA-Gln-NH2
notes: Stapled peptide composition
B7: I-589 (peptide)
peptide: XDKXDEAAFQXFXQ
modifications: not fully specified; Ac-PL3-Asp-[AzAc]Lys-B5-Asp-Glu-Ala-Ala-Phe-Gln-S8-Phe-BztA-Gln-NH2; stapled PL3(1)-B5(4) and B5(4)-S8(11) by olefin metathesis
notes: Stapled peptide composition; same description as I-590, earlier eluting HPLC peak (staple isomer)
B8: I-586 (peptide)
peptide: Ac-[αAllylPro]DI[B5(24)]DEAA[Bta]Q[S8]FFQ-NH2
modifications: staple 1-4, 4-11; not fully specified; printed as Ac-PL3-Asp-Ile-B5-Asp-Glu-Ala-Ala-BztA-Gln-S8-Phe-Phe-Gln-NH2
notes: Stapled peptide composition
B9: I-602 (peptide)
peptide: XDIXDEAAFQXFXQ
modifications: 2PyPrpc-PL3-Asp-Ile-B5-Asp-Glu-Ala-Ala-Phe-Gln-S8-Phe-BztA-Gln-NH2; stapled PL3(1)-B5(4) and B5(4)-S8(11) by olefin metathesis
notes: Stapled peptide composition; N-terminal cap 2PyPrpc
B10: I-601 (peptide)
peptide: XDIXDEAAFQXFXQ
modifications: Bnc-PL3-Asp-Ile-B5-Asp-Glu-Ala-Ala-Phe-Gln-S8-Phe-BztA-Gln-NH2; stapled PL3(1)-B5(4) and B5(4)-S8(11) by olefin metathesis
notes: Stapled peptide composition; N-terminal cap Bnc; same description as I-600, later eluting HPLC peak (staple isomer)
B11: I-581 (peptide)
peptide: XDIXDDAAFQXFXH
modifications: not fully specified; Ac-PL3-Asp-Ile-B5-Asp-Asp-Ala-Ala-Phe-Gln-S8-Phe-BztA-His-NH2; stapled PL3(1)-B5(4) and B5(4)-S8(11) by olefin metathesis
notes: Stapled peptide composition; same description as I-580, later eluting HPLC peak (staple isomer)

Biological target: T1, full-length beta-Catenin (Uniprot ID …)
Experiment: fluorescence polarization competition; full-length beta-catenin, competitor 5FAM-TCF4(10-53) probe
Description: The plate was incubated protected from light for 60 minutes at 20° C. prior to read. Reads were performed on a CLARIOstar plate reader (BMG Labtech) in duplicate, and data were fitted to a 1:1 binding model with hill slope using an in-house script. All provided concentrations are final concentrations.

EC50 [nM]	Binder
796	B1
76	B2
138	B3
112	B4
114	Ac-[αAllylPro]DI[B5]DDAAFQ[S8]F[Bta]H-NH2 (staple 1-4, 4-11; not fully specified, Stapled peptide composition) [I-580]
5000	Ac-[αAllylPro]FI[B5(24)]DEAADQ[S8]F[Bta]Q-NH2 (staple 1-4, 4-11, Stapled peptide composition) [I-588]
845	B5
64	B6
392	Ac-[αAllylPro]DI[B5]DQAAFQ[S8]F[Bta]Q-NH2 (staple 1-4, 4-11, Stapled peptide composition) [I-603]
48	B7
87	Ac-[αAllylPro]DI[B5]DEAAFK(Azidoacetyl)[S8]F[Bta]Q-NH2 (staple 1-4, 4-11, Stapled peptide composition) [I-594]
57	Ac-[αAllylPro]DI[B5]DEAAFQ[S8]F[Bta]K(Azidoacetyl)-NH2 (staple 1-4, 4-11, Stapled peptide composition) [I-595]
24	Ac-[αAllylPro]DI[B5]DEK(Azidoacetyl)AFQ[S8]F[Bta]Q-NH2 (staple 1-4, 4-11; not fully specified, Stapled peptide composition) [I-592]
68	Ac-[αAllylPro]DI[B5]DEAK(Azidoacetyl)FQ[S8]F[Bta]Q-NH2 (staple 1-4, 4-11, Stapled peptide composition) [I-593]
45	Ac-[αAllylPro]DK(Azidoacetyl)[B5(4)]DEAAFQ[S8]F[Bta]Q-NH2 (staple 1-4, 4-11; not fully specified, Stapled peptide composition) [I-590]
5000	B8
3150	B9
419	B10
5000	Ac-[αAllylPro]DI[B5(24)]DEAA[Bta]Q[S8]FFQ-NH2 (staple 1-4, 4-11; not fully specified, Stapled peptide composition) [I-585]
5000	Ac-[αAllylPro]DI[B5(24)]FEAAFQ[S8]D[Bta]Q-NH2 (staple 1-4, 4-11, Stapled peptide composition) [I-587]
112	B11

Biological target: T2, Bcat-Halo
Experiment: cell-based or functional assay

NanoBRET Abs IC50 [nM]	Binder
> 20000	Ac-[αAllylPro]N[Cha][B5(4)]DQ[Lys(iPr)]AFN[PyrS2″]F[Bta]N-NH2 (staple 1-4, 4-11) [I-2111]
> 20000	Ac-[αAllylPro]D[tBuAla][B5(4)]D[hTyr]AA[Phe(3-COOH)]N[PyrS2″][3Thi][Bta]Q-NH2 (staple 1-4, 4-11; also: later eluting HPLC isomer composition) [I-2115]
> 20000	Ac-[αAllylPro]N[Cha][B5(4)]DQ[Lys(iPr)]AF[Lys(iPr)][PyrS2″]F[Bta][hSer]-NH2 (staple 1-4, 4-11) [I-2102]
> 20000	Ac-[αAllylPro]N[Cha][B5(4)]DQ[Lys(iPr)]AFN[PyrS2″]F[Bta]K-NH2 (staple 1-4, 4-11) [I-2110]
> 20000	Ac-[αAllylPro]D[tBuAla][B5(4)]D[hTyr]AA[Phe(3-COOH)]N[PyrS2″][3Thi][Bta]Q-NH2 (staple 1-4, 4-11; also: earlier eluting HPLC isomer composition) [I-2114]
22300	Ac-[αAllylPro]D[tBuAla][B5(4)]D[Phe(3-COOH)]A[dA]FL[PyrS2″][3Thi][Bta]A-NH2 (staple 1-4, 4-11; also: later-eluting HPLC isomer composition) [I-2097]
> 20000	Ac-[αAllylPro]D[tBuAla][B5(4)]D[Phe(3-COOH)]A[dA]FL[PyrS2″][2F3MeF][Bta]A-NH2 (staple 1-4, 4-11; also: earlier-eluting HPLC isomer composition) [I-2098]
> 20000	Ac-[αAllylPro]D[tBuAla][B5(4)]D[Phe(3-COOH)]A[dA]FL[PyrS2″][3Thi][Bta]A-NH2 (staple 1-4, 4-11; also: earlier-eluting HPLC isomer composition) [I-2096]
> 20000	Ac-[αAllylPro]D[tBuAla][B5(4)]D[Phe(3-COOH)]A[dA]FL[PyrS2″][3Thi][Bta][dA]-NH2 (staple 1-4, 4-11) [I-2100]
> 20000	Ac-[αAllylPro]N[Cha][B5(4)]DQ[Lys(iPr)]AFN[PyrS2″]F[Bta]H-NH2 (staple 1-4, 4-11) [I-2109]
